Tests used:
[1] = target: the molecule itself; assay: ThT fluorescence aggregation assay + TEM; peptide alone, 1 mM in 1X PBS, neutral pH, one week at 37 °C with 900 RPM orbital shaking; endpoint ThT (15 µM) and negative-stain TEM; self-assembly into fibrils
[2] = target: the molecule itself; assay: ThT fluorescence aggregation assay + TEM; peptide alone, 200 µM in 1X PBS + 25 µM ThT, 37 °C, one week, endpoint ThT; fibrils checked by negative-stain TEM; self-assembly into fibrils

B1: 306VQIVYK311 peptide (peptide)
peptide: Ac-VQIVYK-NH2
notes: also called WT; source: synthetic peptide, bought: GenScript (≥95% purity)
[1]
  binding result: binds

B2: VQIVYA peptide (peptide)
peptide: VQIVYA
notes: Acetyl and amide caps and the supplier (GenScript) are stated only for the ZipperDB-predicted hexapeptides; likely the same here; also called VQIVYK alanine mutant at position six; source: peptide
[2]
  binding result: binds

B3: AQIVYK peptide (peptide)
peptide: AQIVYK
notes: Acetyl and amide caps and the supplier (GenScript) are stated only for the ZipperDB-predicted hexapeptides; likely the same here; also called VQIVYK alanine mutant at position one; source: peptide
[2]
  binding result: binds

B4: VAIVYK peptide (peptide)
peptide: VAIVYK
notes: Acetyl and amide caps and the supplier (GenScript) are stated only for the ZipperDB-predicted hexapeptides; likely the same here; also called VQIVYK alanine mutant at position two; source: peptide
[2]
  binding result: binds

B5: VQIVAK peptide (peptide)
peptide: VQIVAK
notes: Acetyl and amide caps and the supplier (GenScript) are stated only for the ZipperDB-predicted hexapeptides; likely the same here; also called VQIVYK alanine mutant at position five; source: peptide
[2]
  binding result: binds

B6: 275VQIINK280 peptide (peptide)
peptide: Ac-VQIINK-NH2
notes: source: synthetic peptide, bought: GenScript (≥95% purity)
[1]
  binding result: binds
